Source: PMC11963481, “The Vacuolar Inositol Transporter BvINT1;1 Contributes to Raffinose Biosynthesis and Reactive Oxygen Species Scavenging During Cold Stress in Sugar Beet” (Plant, Cell & Environment, 2025)

System: T1, O[C@H]1[C@H](O)[C@@H](O)[C@H](O)[C@@H](O)[C@H]1O
T1 construct: full-length CDS with C-terminal dileucine motif mutated (LL489/490AA) for plasma membrane targeting; cRNA-injected Xenopus laevis oocytes
Assay: two-electrode voltage clamp, inward currents in Xenopus oocytes, Michaelis-Menten fit
Assay type: cell-based, Beta vulgaris
Details: pH 5.5, room temperature, holding potential -20 mV, 96 mM NaCl bath, inositol/H+ symport, n = 7 oocytes

## BvINT1;1 LL489/490AA (INT1;1^PM, BvINT1;1^PM) (Beta vulgaris subsp. vulgaris; L489A/L490A)
  Km: 2300 ± 300 µM
